Assay results reported in US20250042970A1 (AURINIA PHARMACEUTICALS, published 2025).
Numbering of substitutions follows the chain as printed. Where two headings read alike, the source gives them in different places. Blank lines part the entries; values can stand above or below the binder they belong to. Ends that are not written are not given here.

What was measured:
[1] = target: T1, FLAG-tagged cynomolgous APRIL (cynomolgus monkey, UniProt A0ACM8R0G4 110-250 (rhesus entry)); experiment: BIACORE SPR
T1 construct: FLAG-tagged, expressed with TPA signal peptide; also called cyAPRIL
T1 sequence: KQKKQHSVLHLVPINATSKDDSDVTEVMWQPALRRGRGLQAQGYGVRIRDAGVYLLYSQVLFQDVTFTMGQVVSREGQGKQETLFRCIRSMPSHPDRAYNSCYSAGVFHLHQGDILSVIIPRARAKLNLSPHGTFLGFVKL
Description: (§1) For human BAFF, cynomolgus monkey APRIL, and mouse APRIL measurements, mouse monoclonal antibody (IgG1) anti-FLAG M2 (Sigma Aldrich, Cat. No. F1804) was immobilized on CM3 sensor chips (GE Healthcare, Cat. No. BR-1005-41) according to the manufacturer's protocol. Antibody was diluted to 30 μg/ml in immobilization buffer (10 mM pH 5±0.20; GE Healthcare; GE Healthcare, Catalog No. BR-1003-51). […] Unreacted sites were quenched with 35 μl of 1M ethanolamine-HCl, pH 8.5 (GE Healthcare, GE Healthcare, Cat. No. BR-1000-50). This procedure typically yielded 3,000-4,000 response units (RU) of coupled antibody.
(§2) The fusion polypeptides were diluted in HBS-EP buffer and flowed over ligand-coated sensor chips. The variant BCMA-Ig and surrogate control fusion proteins were injected at three concentrations (1.5 nM, 15 nM, and 150 nM at 30 μl/min for 2 minutes per association phase) in a single binding cycle, followed by a 20 minute incubation with HBS-EP buffer containing no protein at the same flow rate. A similar protocol was followed for Z-TACI-Ig, except that the injections were at 4.5 nM, 45 nM, and 450 nM.
(§3) The various fusion proteins described above were expressed and purified as described previously (Examples 2 and 3 for the CET1019AS based plasmids and Examples 7 and 8 for the pcDNA based plasmids). […] The BAv9-1-Ig Fc proteins typically exist in solution as a dimeric fusion protein. The purified fusion proteins were assayed for binding activity using BIACORE (Example 9) and KINEXA (Example 11) assays.

FLAG-tagged human BAFF [2] = target: T2, FLAG-tagged human BAFF (human, UniProt Q9Y275 134-285, limits assumed); experiment: BIACORE SPR
T2 construct: used in BIACORE (Ex. 9) and KINEXA (Ex. 11); also called huBAFF
Description: as §1, §2, §3

[3] = target: T3, FLAG-tagged recombinant human APRIL (human, UniProt O75888 105-250); experiment: KinExA
T3 construct: KINEXA ligand; also called huAPRIL
T3 sequence: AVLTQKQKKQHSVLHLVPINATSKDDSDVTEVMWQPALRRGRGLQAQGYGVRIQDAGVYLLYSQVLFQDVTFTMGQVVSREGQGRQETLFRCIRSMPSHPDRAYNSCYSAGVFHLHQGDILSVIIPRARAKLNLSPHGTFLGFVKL
Description: (§4) Equilibrium measurements were performed using FLAG-tagged, recombinant huBAFF and huAPRIL ligands. Fixed ligand concentrations of human BAFF or human APRIL were incubated with serial dilutions of the variant BCMA ECD-Ig fusion polypeptides, and free ligand was detected in a KINEXA 3200 Instrument. variant BCMA ECD-Ig fusion polypeptides were first diluted in equilibration buffer (1×PBS, pH 7.4, 1 mg/ml BSA) to a range of concentrations from 10 nM to 100 fM. The linear portion of the dilution series was typically 2-fold. Ligands were diluted in equilibration buffer to fixed concentrations ranging from 5 to 20 pM and then incubated with the variant BCMA-Ig dilutions in total reaction volumes ranging from 4.5 to 15 ml. Samples were incubated at room temperature for 48-72 hours to reach equilibrium. For each data point, a fresh column of 850 μl of bead slurry coated with Variant BAv-238475-Ig was introduced into the KINEXA flow cell. Equilibrated samples ranging from 1 to 5 ml reaction volume were injected at a flow rate of 0.25 ml/min. […] The DyLight 649 fluorescent signal was detected using the red filter set (620/30 nanometer excitation filter, 670/40 nanometer emission filter, 645 nanometer dichroic filter) on the KinExA instrument and converted to a voltage signal that was directly proportional to the concentration of free ligand in the equilibrated sample.
as §3

FLAG-tagged human BAFF [4] = target: T2, FLAG-tagged human BAFF; experiment: KinExA
Description: as §4, §3

[5] = target: T3, FLAG-tagged recombinant human APRIL; experiment: KinExA; remark: listed apart in the source
Description: as §4
(§5) Table 5 provides the selectivities of exemplary variant BCMA polypeptides with respect to BAFF and APRIL.

FLAG-tagged human BAFF [6] = target: T2, FLAG-tagged human BAFF; experiment: KinExA; remark: listed apart in the source
Description: as §4, §5

[7] = target: T3, FLAG-tagged recombinant human APRIL; experiment: KinExA; remark: listed apart in the source
Description: as §4
(§6) The standard kinetic exclusion assays and data analyses described above were performed on protein preparations of various variant BCMA ECD-Ig fusion polypeptides, as well as Z-TACI-Ig and [S40G]huBCMA ECD-Ig fusion polypeptides. FIG. 8A, FIG. 8B, and Table 4 summarize the binding data for representative variant BCMA ECD-Ig polypeptides and controls in molar concentrations of huBAFF or huAPRIL determined by KINEXA binding assays.

FLAG-tagged human BAFF [8] = target: T2, FLAG-tagged human BAFF; experiment: KinExA; remark: listed apart in the source
Description: as §4, §6

B3: BAv9-1-5L-pIg22 (Fc fusion, human)
chain: AGQCSQNEYFDHLIRACIPCQLRCSSNTPPLTCQRYCNAGVTNSVGGGGS
modifications: not fully specified (C-terminus); cysteine pairing not given here; also: terminal Fc lysine may be cleaved off ([K278]del)
notes: domain: Fc; terminal lysine may be cleaved off; also called BAv9-1-5L-pIg22 [K278]del; not shown: PIg22: chimeric Fc, CH2 domain of PIg18 (human IgG2 derivative) and CH3 domain of human IgG1
Kd [1]: 41.8 pM | Kd (FLAG-tagged human BAFF [2]): 16.5 pM | Kd [3]: 0.611 pM | Kd (FLAG-tagged human BAFF [4]): 0.864 pM

B6: BAv9-1-[K46-A50]del-pIg22 (Fc fusion, human)
chain: AGQCSQNEYFDHLIRACIPCQLRCSSNTPPLTCQRYCNAGVTNSV
modifications: cysteine pairing not given here; also: fused to PIg22 Fc, not in chain
notes: domain: Fc; also called BAv9-1-des[K46-A50]-PIg22; not shown: PIg22: chimeric Fc, CH2 domain of PIg18 (human IgG2 derivative) and CH3 domain of human IgG1
Kd [1]: 41.8 pM | Kd (FLAG-tagged human BAFF [2]): 20.4 pM | Kd [3]: 0.31 pM | Kd (FLAG-tagged human BAFF [4]): 0.417 pM

Continued by falling Kd [1], values first:

Kd [1]: 1450 pM | Kd (FLAG-tagged human BAFF [2]): 16.2 pM | Selectivity for huAPRIL (KD BAFF/KD APRIL) [5]: 0.003 ratio | Selectivity for huBAFF (KD APRIL/KD BAFF) (FLAG-tagged human BAFF [6]): 372 ratio | Kd [7]: 313 pM | fold improvement over control [7]: 0.00051 fold | Kd (FLAG-tagged human BAFF [8]): 0.842 pM | fold improvement over control (FLAG-tagged human BAFF [8]): 268 fold | Kd [3]: 313 pM | Kd (FLAG-tagged human BAFF [4]): 0.842 pM
B5: BAv49-Ig (Fc fusion)
chain: B3 chain with H12P, L22V, G46K, G48T, G49N, S50A
notes: also called BAv49 (3)-Ig; BAv49-pIg18; not shown: PIg18: human IgG2 Fc, Ser at Fc positions 4, 5, 11 (native Cys)

Kd [1]: 45.6 pM | Kd (FLAG-tagged human BAFF [2]): 16.5 pM | Kd [3]: 0.32 pM | Kd (FLAG-tagged human BAFF [4]): 0.484 pM
B4: BAv9-1K46G-pIg22 (Fc fusion, human)
chain: B3 chain with G48T, G49N, S50A
notes: domain: Fc; not shown: PIg22: chimeric Fc, CH2 domain of PIg18 (human IgG2 derivative) and CH3 domain of human IgG1

Kd [1]: 42.5 pM | Kd (FLAG-tagged human BAFF [2]): 17.5 pM | Kd [3]: 1.26 pM | Kd (FLAG-tagged human BAFF [4]): 0.301 pM
B1: BAv9-1-5L-pIg18 (Fc fusion)
chain: B3 chain
notes: not shown: PIg18: human IgG2 Fc, Ser at Fc positions 4, 5, 11 (native Cys)

Kd [1]: 33.7 pM | Kd (FLAG-tagged human BAFF [2]): 15.7 pM | Kd [3]: 0.088 pM | Kd (FLAG-tagged human BAFF [4]): 0.537 pM
B2: BAv9-1-pIg22 (Fc fusion, human)
chain: B3 chain with G46K, G48T, G49N, S50A
notes: as for B4
